Assay results as given in PMC3437207, “G-quadruplex recognition activities of E. Coli MutS”.

T1: MutS (Escherichia coli, UniProt P23909 1-853)
T1 sequence: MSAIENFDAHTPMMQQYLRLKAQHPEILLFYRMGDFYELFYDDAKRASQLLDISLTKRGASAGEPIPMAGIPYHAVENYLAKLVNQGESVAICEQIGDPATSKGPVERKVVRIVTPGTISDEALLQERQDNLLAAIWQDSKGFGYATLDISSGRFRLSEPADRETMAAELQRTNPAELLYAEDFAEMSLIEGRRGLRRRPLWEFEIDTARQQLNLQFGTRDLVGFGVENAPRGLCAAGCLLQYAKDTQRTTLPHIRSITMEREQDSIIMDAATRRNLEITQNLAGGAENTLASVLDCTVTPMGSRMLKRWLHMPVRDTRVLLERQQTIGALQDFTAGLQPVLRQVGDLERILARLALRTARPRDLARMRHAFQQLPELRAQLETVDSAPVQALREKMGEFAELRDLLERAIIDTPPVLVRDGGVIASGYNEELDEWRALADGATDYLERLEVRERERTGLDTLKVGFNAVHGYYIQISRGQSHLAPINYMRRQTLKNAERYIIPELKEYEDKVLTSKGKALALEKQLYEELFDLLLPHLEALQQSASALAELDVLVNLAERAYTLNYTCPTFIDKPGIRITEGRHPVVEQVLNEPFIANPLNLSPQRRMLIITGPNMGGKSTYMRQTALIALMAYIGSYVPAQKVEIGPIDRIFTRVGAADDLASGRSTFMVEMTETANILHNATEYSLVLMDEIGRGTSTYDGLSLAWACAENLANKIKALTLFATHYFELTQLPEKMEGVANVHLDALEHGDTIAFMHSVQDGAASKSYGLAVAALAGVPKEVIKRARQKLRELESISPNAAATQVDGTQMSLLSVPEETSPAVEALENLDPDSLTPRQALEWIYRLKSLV

B1: G-T mismatch heteroduplex (dsDNA)
DNA 1: CTAGCAAGCTTTCGATTCTAGAAATTCGGC
DNA 2: GCCGAATTTCTAGAATTGAAAGCTTGCTAG
B2: Homoduplex (dsDNA)
DNA 1: CTAGCAAGCTTTCAATTCTAGAAATTCGGC
DNA 2: GCCGAATTTCTAGAATTGAAAGCTTGCTAG

Key:
MutS [1] = biological target: T1, MutS; assay: EMSA; no nucleotide; 5 mM Mg2+; homoduplex competitor; 20 mM Tris pH 7.6, 5 mM MgCl2, 1 mM DTT, 50 ug/ml BSA, 10 mM KCl, 200 fmol homoduplex competitor, 10-20 fmol labeled DNA in 20 ul; 6% native PAGE 0.5X TBE with; settings: protein: recombinant; tags: His; chain copies: 2; label: 5' 32P; blunt; single G-T mismatch at position 14 of strand 1
MutS [2] = biological target: T1, MutS; assay: EMSA; 38-150 nM protein; 20 mM Tris pH 7.6, 5 mM MgCl2, 1 mM DTT, 50 ug/ml BSA, 10 mM KCl, 200 fmol homoduplex competitor, 10-20 fmol labeled DNA in 20 ul; 6% native PAGE 0.5X TBE with; settings: protein: recombinant; tags: His; chain copies: 2; label: 32P; blunt

Binder	binding signal (MutS [1])	binding result (MutS [2])
B1	> 2 fold Kd of MutS for TP-G4	
B2		no binding
